*1 amine or outer side, *2 acyl side, *3 side chain or, on linkers, in order; H or OH if unused. Where no end group is shown, it is not given here. Side-chain parts run from the residue outwards. [ ]: non-standard residue; d: D form. The star is where a group is joined. C20 diacid = O=C(O)CCCCCCCCCCCCCCCCCCC(=O)*; C18 diacid = O=C(O)CCCCCCCCCCCCCCCCC(=O)*; γGlu = O=C(O)[C@H](CCC(=O)[*:2])N[*:1]; εLys = N[C@@H](CCCCN[*:1])C(=O)[*:2]; αMeL = CC(C)C[C@](C)(N)C(=O)O; AEEA = NCCOCCOCC(=O)O; Aib = CC(C)(N)C(=O)O; Ahx = NCCCCCC(=O)O; βAla = NCCC(=O)O Where only a bound is given, the exact number is not on record here.

The experiment has as its target T1, human corticotropin-releasing hormone receptor 1 (CRHR1) (human, UniProt P34998 24-415).
T1 sequence (looked up): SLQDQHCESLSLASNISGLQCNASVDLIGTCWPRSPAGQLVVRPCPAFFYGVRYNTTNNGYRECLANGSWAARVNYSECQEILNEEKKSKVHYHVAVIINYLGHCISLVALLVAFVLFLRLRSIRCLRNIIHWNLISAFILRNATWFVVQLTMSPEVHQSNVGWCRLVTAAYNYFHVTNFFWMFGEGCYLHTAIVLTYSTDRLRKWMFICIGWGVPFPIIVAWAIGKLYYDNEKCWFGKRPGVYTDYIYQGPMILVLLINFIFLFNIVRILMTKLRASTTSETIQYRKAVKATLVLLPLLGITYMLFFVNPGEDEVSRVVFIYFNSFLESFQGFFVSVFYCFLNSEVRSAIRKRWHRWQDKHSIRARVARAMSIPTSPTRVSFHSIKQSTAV
As to the kind of experiment: cell-based or functional assay.

With Ac-GSPSIVTS[αMeL]DVPT[Aib][αMeL]LQKILEQERAEKARQQAK([γGlu-Pro-Pro-Pro-εLys-C20 diacid])EAAEILAQV-NH2 [polypeptide comprising SEQ ID NO:14], the “hCRHR1 cAMP EC50” value was more than 10 µM.

Turning to Ac-GSPSIVTS[αMeL]DVPT[Aib][αMeL]LQKLLEQERAEKARQQAK([γGlu-AEEA-Lys-C18 diacid])EAAEILAQV-NH2 (not fully specified) [polypeptide comprising SEQ ID NO:12], the “hCRHR1 cAMP EC50” value is more than 10 µM. The result for Ac-GSPSIVTS[αMeL]DVPT[Aib][αMeL]LQKILEQERAEKARQQAK([γGlu-AEEA-Ahx-C20 diacid])EAAEILAQV-NH2 [polypeptide comprising SEQ ID NO:5] reads more than 10 µM; that for [γGlu]GSPSIVTS[αMeL]DVPT[Aib][αMeL]LEKILEQERAEKARQQATEAAEILAQV-NH2 (not fully specified (residue 1, N-terminus)) [polypeptide comprising SEQ ID NO:52], 1.5 µM; that for Ac-GSPSIVTS[αMeL]DVPT[Aib][αMeL]LQKILEQERAEKARQQAK([AEEA-KEKEKE-γGlu-C20 diacid])EAAEILAQV-NH2 [polypeptide comprising SEQ ID NO:9], more than 10 µM. For Ac-IVTS[αMeL]D[dV]PI[Aib][αMeL]LQIKLEQERAEKARQQAKENTEILAQV-NH2 (not fully specified (residue 29)) [polypeptide comprising SEQ ID NO:51], the “hCRHR1 cAMP EC50” value was determined as 4.3 µM. Next, Ac-GSPSIVTS[αMeL]DVPT[Aib][αMeL]LQKILEQERAEKARQQAK([γGlu-Pro-Lys-Glu-εLys-C20 diacid])EAAEILAQV-NH2 [polypeptide comprising SEQ ID NO:13]: more than 10 µM; Ac-GSPSIVTS[αMeL]DVPT[Aib][αMeL]LQKILEQERAEKARQQAK([Gly-βAla-βAla-βAla-γGlu-C20 diacid])EAAEILAQV-NH2 [polypeptide comprising SEQ ID NO:7]: more than 10 µM. Next, Ac-GSPSIVTS[αMeL]DVPT[Aib][αMeL]LQKILEQERAEKARQQAK([γGlu-Pro-Lys-Glu-Ahx-C20 diacid])EAAEILAQV-NH2 [polypeptide comprising SEQ ID NO:11]: more than 10 µM. Next, Ac-GSPSIVTS[αMeL]DVPT[Aib][αMeL]LQKILEQERAEKARQQAK([βAla-Ser-βAla-Ser-γGlu-C20 diacid])EAAEILAQV-NH2 [polypeptide comprising SEQ ID NO:10]: more than 10 µM; Ac-GSPSIVTS[αMeL]DVPT[Aib][αMeL]LQKILEQERAEKARQQAK([γGlu-Pro-Pro-Pro-Pro-Pro-Pro-C20 diacid])EAAEILAQV-NH2 [polypeptide comprising SEQ ID NO:15]: more than 10 µM. In the case of Ac-GSPSIVTS[αMeL]DVPT[Aib][αMeL]LQKILEQERAEKARQQAK([γGlu-Pro-Glu-Pro-Glu-Pro-Glu-C20 diacid])EAAEILAQV-NH2 [polypeptide comprising SEQ ID NO:16], the “hCRHR1 cAMP EC50” value is more than 10 µM. The result for Ac-GSPSIVTS[αMeL]DVPT[Aib][αMeL]LQKILEQERAEKARQQAK([γGlu-GKEKEKE-C20 diacid])EAAEILAQV-NH2 [polypeptide comprising SEQ ID NO:6] reads more than 10 µM; that for Ac-GSPSIVTS[αMeL]DVPT[Aib][αMeL]LQKILEQERAEKARQQAK([Gly-βAla-βAla-βAla-βAla-γGlu-C20 diacid])EAAEILAQV-NH2 [polypeptide comprising SEQ ID NO:8], more than 10 µM.

For the origin of these results see US20250163119A1, “COMPOUNDS FOR THE TREATMENT OF DIABETES OR OBESITY” (Eli Lilly and Company, priority 2023, published 2025).
